Measurements reported in patent US20080063646A1 (AbbVie / Abbott, published 2008).
Numbering of substitutions follows the chain as printed. Names may count otherwise. “And” between values parts separate entries of the source, which are not always exact repeats. Identical values can stand only once. One block for each binder: values may come before it.

Assays:
[1] = target: T1, recombinant human IP-10 (R&D Systems) (human, UniProt P02778 22-98); assay: Biacore
T1 construct: Bought recombinant protein; also called CXCL10; rhIP-10
T1 sequence: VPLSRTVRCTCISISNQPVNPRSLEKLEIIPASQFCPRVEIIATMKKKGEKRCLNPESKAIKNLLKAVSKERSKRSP

[2] = target: T1, recombinant human IP-10 (R&D Systems); assay: cell-based or functional assay
[3] = target: T2, B lymphocyte chemokine (BLC) (UniProt O43927 23-109, limits assumed); assay: ELISA with hybridoma supernatants
T2 sequence (looked up): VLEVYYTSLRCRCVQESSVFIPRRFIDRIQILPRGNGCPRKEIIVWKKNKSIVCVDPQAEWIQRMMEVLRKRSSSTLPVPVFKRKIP

fold faster off-rate (kd) than unmodified HuAIP12 [1]: ~2 fold
fold higher Kd than unmodified HuAIP12 [1]: > 20 fold
fold slower on-rate (ka) than unmodified HuAIP12 [1]: ~10 fold
fold weaker monovalent interaction than unmodified HuAIP12 [1]: 20 fold
B1: HuAIP12 G104A variant antibody (antibody, V domains shown)
VH: EVQLVQSGAEVKKPGATVKISCKVSGYTFTDYSMHWVRQAPGKGLKWMGWINTETGEPTYADDFKGRFTFTLDTSTSTAYMELSSLRSEDTAVYYCARNYDYDAYFDVWGQGTTVTVSS
VL: DIQMTQSPSSLSASVGDRVTITCKASQDINKYIAWYQQKPGKAPKLLIHYTSTLQPGIPSRFSGSGSGRDYTFTISSLQPEDIATYYCLQYDNLLFTFGQGTKLEIK
notes: Human gamma-1 / kappa, transiently expressed in 293-H cells

IC50 of inhibition of chemotaxis, donor 215 [2]: 0.142 µg/mL
IC50 of inhibition of chemotaxis, donor 318 [2]: 0.038 µg/mL
IC50 of inhibition of chemotaxis, donor 1012 [2]: 0.073 µg/mL
B2: humanized monoclonal antibody HuAIP12 (antibody, IgG1, V domains shown)
VH: B1 VH with A104G
VL: B1 VL

IC50 of inhibition of chemotaxis, donor 215 [2]: 0.139 µg/mL
IC50 of inhibition of chemotaxis, donor 318 [2]: 0.045 µg/mL
IC50 of inhibition of chemotaxis, donor 1012 [2]: 0.077 µg/mL
B3: humanized monoclonal antibody HuAIP13 (antibody, IgG1, V domains shown)
VH: B1 VH with T55I
VL: B1 VL with S26D, I48L, Y50H, N93S

IC50 of inhibition of chemotaxis, donor 215 [2]: 0.13 µg/mL
IC50 of inhibition of chemotaxis, donor 318 [2]: 0.041 µg/mL
IC50 of inhibition of chemotaxis, donor 1012 [2]: 0.091 µg/mL
IC50 of inhibition of chemotaxis, donor 1022 [2]: 0.135 µg/mL and 0.051 µg/mL and 0.086 µg/mL
binding result [3]: no binding
B4: murine monoclonal antibody AIP12 (antibody, V domains shown)
VH: QIQLVQSGPELKKPGETVKISCKASGYTFTDYSMHWVKQAPGKGLKWMGWINTETGEPTYADDFKGRFAFSLETSASTAYLQINNLKNEDTATYFCARNYDYDGYFDVWGAGTTVTVSS
VL: DIQMTQSPSSLSASLGGKVTITCKASQDINKYIAWYQHKPGKGPRLLIHYTSTLQPGIPSRFSGSGSGRDYSFSISNLEPEDIATYYCLQYDNLLFTFGSGTKLEIK
notes: Mouse hybridoma antibody; Mouse IgG1/kappa is used as its isotype control; also called MuAIP12; MUAIP12

IC50 of inhibition of chemotaxis, donor 215 [2]: 0.26 µg/mL
IC50 of inhibition of chemotaxis, donor 318 [2]: 0.139 µg/mL
IC50 of inhibition of chemotaxis, donor 1012 [2]: 0.084 µg/mL
IC50 of inhibition of chemotaxis, donor 1022 [2]: 0.229 µg/mL and 0.154 µg/mL and 0.078 µg/mL
binding result [3]: no binding
B5: murine monoclonal antibody AIP13 (antibody, V domains shown)
VH: B4 VH with T55I, G104A
VL: B4 VL with S26D, K42R, I48L, Y50H, E81A, N93S
notes: Mouse hybridoma antibody; Mouse IgG1/kappa is used as its isotype control; also called MuAIP13
